Patent US5976875A, “Diacylglycerol kinase isoforms epsilon and zeta and methods of use thereof” (priority 1997, dated 1999)
Read-outs that look alike come from different tables or passages of the source.

Assays:
[1] = test system: protein kinase M (PKM), catalytic fragment of mixed rat brain PKC isozymes; assay: Phosphorylation of peptides by PKM (kinetics); type: biochemical; conditions: for Km: FIG. 15C
Method: Phosphorylation of peptides and proteins--Peptides were phosphorylated by the purified catalytic fragment of mixed rat brain PKC isozymes (protein kinase M; PKM). In all cases involving kinetic measurements, the peptides were phosphorylated by PKM (1:120 dilution of frozen stock solution) at 30° C. All reactions were performed in the linear range of peptide phosphorylation, in an assay mixture containing 40 mM Hepes (pH 7.4), 0.25 mM EGTA, 12.5 mM MgCl2, 75 μM y-[^32 P]ATP, and various concentrations of peptides. In the peptide experiments, the reactions were stopped after 10 minutes by the addition of 1/5 vol of 5×SDS sample buffer, boiled for 5 minutes and then subjected to electrophoresis on 20% acrylamide gels. After the gels were dried, the phosphorylated peptides were localized by autoradiography, excised from the gel, and subjected to Cerenkov scintillation counting.

[2] = molecular target: protein kinase M (PKM), catalytic fragment of mixed rat brain PKC isozymes; assay: Inhibition of PKM phosphorylation of histone IIIS; type: biochemical; conditions: histone IIIS as substrate, 10 minute reaction; read-out: half-maximal inhibition of PKM
Method: When the inhibitory effects of the DGK A/S peptide were assayed, histone IIIS (final concentration 20 μg/ml or as specified) was used as a substrate for PKM (1:80 dilution of frozen stock) in the reaction mixture described above. The reaction was linear for at least 40 minutes at 30° C.; 10 and 15 minute time points were chosen to evaluate inhibitory effects of the peptide. The peptide was added to the reaction mixture for 10 min at 30° C. in a shaking water bath before the reactions were started by the addition of Mg/ATP; samples were assayed using filter papers (P81, Whatman) and trichloroacetic acid precipitation.

[3] = test system: protein kinase M (PKM), catalytic fragment of mixed rat brain PKC isozymes; conditions: comparison values for MARCKS and MRP synthetic peptides; read-out: S0.5 for phosphorylation by PKM; cited from earlier work
[4] = molecular target: human diacylglycerol kinase ζ (DGKζ) (human)
[5] = molecular target: DGK peptide, 18 amino acid peptide corresponding to residues 256-273 of DGKζ (human)
[6] = molecular target: DGK A/S peptide, the DGK peptide with an alanine substituted for the serine at residue 10 (human)
DGK.zeta.-2 = molecular target: T1, DGK.zeta.-2 (Homo sapiens, UniProt Q13574); assay: DGK activity assay, homogenates of DGK.zeta.-2-transfected COS-7 cells; type: biochemical
T1 construct: the DGK.zeta.-2 cDNA was subcloned into an expression vector and transfected into COS-7 cells; expressed in transfected cells; host or cells: COS-7
T1 sequence (Q13574 1-1117 isoform Q13574-1 Q21R/L159V/L166C/L167C): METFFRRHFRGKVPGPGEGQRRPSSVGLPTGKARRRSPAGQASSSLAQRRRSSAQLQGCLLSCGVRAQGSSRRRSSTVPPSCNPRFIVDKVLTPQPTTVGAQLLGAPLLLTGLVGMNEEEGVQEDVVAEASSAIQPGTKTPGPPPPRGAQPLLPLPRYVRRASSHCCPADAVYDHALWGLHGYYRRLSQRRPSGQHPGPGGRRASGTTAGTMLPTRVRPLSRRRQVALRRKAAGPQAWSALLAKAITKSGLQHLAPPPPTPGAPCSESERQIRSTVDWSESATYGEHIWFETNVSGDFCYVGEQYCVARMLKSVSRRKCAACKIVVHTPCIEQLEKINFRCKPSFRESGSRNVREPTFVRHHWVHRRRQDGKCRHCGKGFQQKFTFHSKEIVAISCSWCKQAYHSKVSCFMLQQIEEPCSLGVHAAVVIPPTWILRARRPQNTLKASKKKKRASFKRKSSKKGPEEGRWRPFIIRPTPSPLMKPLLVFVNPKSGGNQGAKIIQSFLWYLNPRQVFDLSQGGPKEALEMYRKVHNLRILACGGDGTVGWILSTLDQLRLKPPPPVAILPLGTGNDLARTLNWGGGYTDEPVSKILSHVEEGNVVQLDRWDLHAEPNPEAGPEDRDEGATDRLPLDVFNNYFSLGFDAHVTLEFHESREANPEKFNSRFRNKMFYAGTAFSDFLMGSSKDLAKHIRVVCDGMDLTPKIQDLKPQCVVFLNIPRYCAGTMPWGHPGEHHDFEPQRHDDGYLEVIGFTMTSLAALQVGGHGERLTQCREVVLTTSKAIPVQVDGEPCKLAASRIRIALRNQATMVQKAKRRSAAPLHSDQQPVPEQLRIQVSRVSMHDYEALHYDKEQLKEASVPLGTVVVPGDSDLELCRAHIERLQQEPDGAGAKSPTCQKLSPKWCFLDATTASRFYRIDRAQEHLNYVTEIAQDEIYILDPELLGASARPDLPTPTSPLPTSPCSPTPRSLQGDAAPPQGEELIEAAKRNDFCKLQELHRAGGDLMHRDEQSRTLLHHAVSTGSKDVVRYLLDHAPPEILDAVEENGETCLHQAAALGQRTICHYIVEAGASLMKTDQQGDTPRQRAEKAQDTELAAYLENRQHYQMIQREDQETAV
Method: DAG Kinase Assay--Cell homogenates were sonicated twice with 5 watts for 5 at 4° C. The protein concentration of each cell homogenate was measured following trichloracetic acid precipitation utilizing the BCA protein assay reagent (Pierce). Each assay contained 50 mM MOPS, pH 7.2, 100 mM NaCl, 20 mM MgCl2, 1 mM EGTA, 1 mM dithiothreitol, 2 mM 1,2-dieleoyl-an-glycerol, 3.5 mM phosphatidylserine, 75 mM octyl-β-glucopyranoside, 500 μM [γ^32 ]ATP, and 0-20 μg of cell homogenate in a volume of 200 μl. For substrate specificity experiments, various diacylglycerol species were substituted for 1,2-dioleoyl-an-glycerol. The reactions were initiated by the addition of ATP (20-30 μCi/μmol), were incubated for 10 min. At 24° C., and were terminated by the addition of 200 μl of 1% perchloric acid. […] Fifty μl of each sample were counted directly by liquid acintillation spectrometry, and the remainder was applied to a 20×20 cm Silica 60A thin layer chromatography plate (Whatman). […] The region containing phosphatidic acid (as indicated by radiolabeled standards) and the remaining areas of each lane were scraped separately, and the radioactivity was estimated by liquid scintillation spectrometry. The amount of phosphatidic acid formed per reaction was calculated as [2(direct count)(PA cpm)(total lane cpm)]×[mole ATP/cpm]. […]

[7] = molecular target: protein kinase M (PKM), purified catalytic fragment of mixed rat brain PKC isozymes (rat)

## DGK(A/S) peptide: same peptide with an alanine substituted for the serine at residue 10 (SEQ ID NO: 16) (KASKKKKRAAFKRKSSKK)
[1]; 0.2 mM peptide, identical conditions
  rate of phosphorylation relative to native peptide: approximately 1/6
[1]; read-out: Km of possible second, still lower affinity site
  Km: > 800 µM
[1]; initial portion of the rectangular hyperbola, read-out: Km as substrate for PKM
  Km: ~50 µM
[2]
  IC50: ~800 nM

## MARCKS: MARCKS synthetic peptide phosphorylated by PKM (KASKKKKRASFKRKSSKK)
[3]
  Km: 0.02 µM

## human protein kinase C γ (PKCγ) (from UniProt P05129) (enzyme)
[4]
  nuclear localization of DGKζ by subcellular fractionation and immunoblotting: > 50%

## protein kinase M (PKM), purified catalytic fragment of mixed rat brain PKC isozymes (pool or library)
[5]
  Km of phosphorylation of the peptide by PKM: 0.5 µM
[6]
  Km of a possible second phosphorylation site: > 800 µM
  Km of phosphorylation of the peptide by PKM: 50 µM

## DGK.zeta.-2: alternatively spliced muscle form of DGK.zeta., 1,117 amino acid protein (SEQ ID NO: 6)
DGK.zeta.-2; 1,2-dicapryl-sn-glycerol substrate, typical experiment, FIG. 21
  DGK activity: 6.8 nmol/mg/min
DGK.zeta.-2; transfected COS-7 homogenates
  DAG kinase activity relative to vector alone: more than 50 fold

## KASKKKKRAAFKRKSSKK [DGK A/S peptide, the DGK peptide with an alanine substituted for the serine at residue 10]
[7]
  half-maximal inhibition of PKM phosphorylation of histone IIIS: 800 nM
